This is an account of results in patent US20240190989A1 (BEIGENE SWITZERLAND, published 2024).

Numbering of substitutions follows the chain as printed. “And” between values parts separate entries of the source, which are not always exact repeats. Identical values can stand only once.

In one experiment the target is FcγRIIIAF158 (UniProt P08637 17-208). Description: ELISA-based FcγR binding, luminescence read-out (RLU). Background: ELISA stands for enzyme-linked immunosorbent assay.
A further experiment addresses FcγRI (UniProt P12314 16-288, limits assumed). The experiment is described as above.
In the next experiment the target is T1, FcγRIIAR131 (UniProt P12318 34-218).
T1 sequence (looked up): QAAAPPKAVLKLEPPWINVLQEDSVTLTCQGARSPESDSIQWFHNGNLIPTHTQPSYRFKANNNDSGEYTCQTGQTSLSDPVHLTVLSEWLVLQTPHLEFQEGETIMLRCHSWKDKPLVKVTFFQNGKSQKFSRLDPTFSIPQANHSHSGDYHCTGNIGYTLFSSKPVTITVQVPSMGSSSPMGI
Described as above.

The target in a further experiment is FcγRIIIAV158 (UniProt P08637 17-208). Described as above.
FcγRIIIAV158, sequence (P08637 17-208 F176V): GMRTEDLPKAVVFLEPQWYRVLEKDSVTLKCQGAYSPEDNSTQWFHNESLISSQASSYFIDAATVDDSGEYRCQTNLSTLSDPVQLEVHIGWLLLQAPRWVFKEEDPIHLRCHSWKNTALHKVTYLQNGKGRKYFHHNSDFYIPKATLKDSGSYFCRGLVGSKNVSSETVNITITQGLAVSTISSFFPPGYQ
For another experiment, the target named is T2, FcγRIIAH131 (UniProt P12318 34-218).
T2 sequence (looked up): T1 sequence (looked up) with R134H
The experiment is described as above.

The target in a further experiment is T3, FcγRIIB (UniProt P31994 43-217, limits assumed).
T3 sequence (looked up): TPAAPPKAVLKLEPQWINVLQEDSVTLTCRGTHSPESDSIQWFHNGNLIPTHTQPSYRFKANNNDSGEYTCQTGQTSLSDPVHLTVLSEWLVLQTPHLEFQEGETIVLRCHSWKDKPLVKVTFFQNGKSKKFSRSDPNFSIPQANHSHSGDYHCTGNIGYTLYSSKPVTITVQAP
Described as above.

Another experiment deals with FcγRIIIB (UniProt O75015 17-200, limits assumed). The description is as above.
FcγRIIIB, sequence (O75015 17-200 limits assumed): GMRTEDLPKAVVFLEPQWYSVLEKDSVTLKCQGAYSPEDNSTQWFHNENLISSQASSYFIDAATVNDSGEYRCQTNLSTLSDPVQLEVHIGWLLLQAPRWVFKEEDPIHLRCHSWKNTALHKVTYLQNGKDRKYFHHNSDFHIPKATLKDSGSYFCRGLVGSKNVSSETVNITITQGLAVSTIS
Experiment [1] concerns the target T4, mouse CD137 (recombinant protein, SPR) (mouse, UniProt P20334 24-187, limits assumed).
T4 construct: also called murine CD137
T4 sequence (looked up): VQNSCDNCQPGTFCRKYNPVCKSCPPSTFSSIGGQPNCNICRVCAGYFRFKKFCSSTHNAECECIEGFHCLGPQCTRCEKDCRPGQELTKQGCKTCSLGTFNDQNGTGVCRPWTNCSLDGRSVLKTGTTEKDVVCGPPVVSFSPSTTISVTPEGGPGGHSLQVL
Description: SPR. On the technique in general: Surface plasmon resonance follows binding to a sensor surface in real time, without labels.

The target in experiment [2] is T5, cynoCEA (Cat. CE5-C52H5, Acrobiosystem) (cynomolgus monkey).
T5 construct: Bought protein; also called Monkey CEA
Description: SPR, Monkey CEA.

The target of experiment [3] is T6, soluble human CEA, amino acids 1-687 of huCEA with C-terminal 6xHis tag (human, UniProt P06731 35-687).
T6 construct: also called sCEA; soluble huCEA
T6 sequence: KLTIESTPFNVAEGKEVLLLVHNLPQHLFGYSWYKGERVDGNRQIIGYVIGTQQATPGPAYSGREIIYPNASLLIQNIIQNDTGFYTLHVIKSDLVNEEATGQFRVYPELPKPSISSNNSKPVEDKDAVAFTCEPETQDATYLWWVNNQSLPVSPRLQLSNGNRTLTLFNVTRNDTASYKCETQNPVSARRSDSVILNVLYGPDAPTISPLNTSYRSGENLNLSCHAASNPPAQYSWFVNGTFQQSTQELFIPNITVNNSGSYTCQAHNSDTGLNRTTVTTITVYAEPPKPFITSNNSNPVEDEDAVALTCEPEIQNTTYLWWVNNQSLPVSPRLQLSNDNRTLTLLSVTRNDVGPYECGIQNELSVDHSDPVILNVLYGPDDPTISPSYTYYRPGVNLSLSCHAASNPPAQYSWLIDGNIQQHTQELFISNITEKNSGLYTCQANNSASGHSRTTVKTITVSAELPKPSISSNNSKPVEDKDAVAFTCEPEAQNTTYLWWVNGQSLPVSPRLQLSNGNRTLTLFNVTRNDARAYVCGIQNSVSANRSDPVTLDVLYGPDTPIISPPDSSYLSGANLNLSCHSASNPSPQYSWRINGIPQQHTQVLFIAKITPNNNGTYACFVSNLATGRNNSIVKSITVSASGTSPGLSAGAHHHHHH
Description: antigen ELISA on huCEA (CEA/His), two batches of BE-146 [panel A].

Experiment [4] addresses full-length human CD137 on cells (Hut78/huCD137, HEK293 transfectants, JK-NFKB-CD137) (human, UniProt Q07011 24-255). Description: cell-based or functional assay.
The target of another experiment is T7, cyno CD137 ECD-mIgG2a (monkey (Macaca mulatta gene; called …).
T7 chain: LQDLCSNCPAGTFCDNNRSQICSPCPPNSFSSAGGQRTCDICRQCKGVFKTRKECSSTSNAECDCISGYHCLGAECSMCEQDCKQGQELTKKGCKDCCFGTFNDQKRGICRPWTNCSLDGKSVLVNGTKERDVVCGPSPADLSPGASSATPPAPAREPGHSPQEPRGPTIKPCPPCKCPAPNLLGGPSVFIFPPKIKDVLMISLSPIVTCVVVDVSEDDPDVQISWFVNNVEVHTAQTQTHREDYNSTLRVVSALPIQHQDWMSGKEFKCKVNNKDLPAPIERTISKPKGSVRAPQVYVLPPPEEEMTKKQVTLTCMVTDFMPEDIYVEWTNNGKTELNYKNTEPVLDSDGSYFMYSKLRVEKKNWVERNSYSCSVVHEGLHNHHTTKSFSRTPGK
Description: SPR, Monkey CD137.

Another experiment addresses T8, human CD137 ECD-mIgG2a (human).
T8 construct: ECD 24-183 of huCD137 fused to mouse IgG2a Fc; also called huCD137-mIgG2a; huCD137
Description: antigen ELISA on huCD137-mIgG2a [panel B].

full-length human CD137 on cells (Hut78/huCD137, HEK293 transfectants, JK-NFKB-CD137), sequence (Q07011 24-255 limits assumed): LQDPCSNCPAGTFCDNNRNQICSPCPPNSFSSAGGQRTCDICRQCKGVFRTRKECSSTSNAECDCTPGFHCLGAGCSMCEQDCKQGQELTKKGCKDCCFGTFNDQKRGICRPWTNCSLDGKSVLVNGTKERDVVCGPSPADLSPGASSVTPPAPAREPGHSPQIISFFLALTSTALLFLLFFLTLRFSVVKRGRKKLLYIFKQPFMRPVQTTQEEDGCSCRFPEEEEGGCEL
FcγRI, sequence (P12314 16-288 limits assumed): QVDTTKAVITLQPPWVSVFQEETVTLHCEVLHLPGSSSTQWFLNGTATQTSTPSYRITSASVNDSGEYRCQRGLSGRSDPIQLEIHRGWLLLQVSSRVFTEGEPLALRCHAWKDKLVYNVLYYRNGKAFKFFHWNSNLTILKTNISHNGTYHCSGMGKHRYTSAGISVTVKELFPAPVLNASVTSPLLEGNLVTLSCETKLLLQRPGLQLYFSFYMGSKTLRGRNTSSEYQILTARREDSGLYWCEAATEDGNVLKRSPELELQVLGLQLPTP
FcγRIIIAF158, sequence (P08637 17-208): as the sequence (P08637 17-208 F176V) above, with V160F counted along it

B1: BE-146 (CEAxCD137 multispecific antibody) (bispecific antibody, human IgG1, kappa)
heavy: QVQLVQSGAEVKKPGASVKVSCKASGYIFTSYYLHWVRQAPGQGLEWIGYINPQTGKTSYAQKFQGRVTMTRDTSTSTVYMELSSLRSEDTAVYYCAREYGNYNYPLDYWGQGTLVTVSSASTKGPSVFPLAPSSKSTSGGTAALGCLVKDYFPEPVTVSWNSGALTSGVHTFPAVLQSSGLYSLSSVVTVPSSSLGTQTYICNVNHKPSNTKVDKKVEPKSCDKTHTCPPCPAPPAAGPSVFLFPPKPKDTLMISRTPEVTCVVVDVSHEDPEVKFNWYVDGVEVHNAKTKPREEQYNSTYRVVSVLTVLHQDWLNGKEYKCKVSNKALAAPIEKTISKAKGQPREPQVYTLPPSREEMTKNQVSLTCLVKGFYPSDIAVEWESNGQPENNYKTTPPVLDSDGSFFLYSKLTVDKSRWQQGNVFSCSVMHEALHNHYTQKSLSLSPGKGGGGSEVQLLESGGGLVQPGGSLRLSCAASGFTVSAEDVGWVRQAPGKGLEWVSAILDKGGSTYYAESVKGRFTISRDNAKNTLYLQMSSLRAEDTAVYYCARIVYHAGGGVTFDTRGQGTQVTVSS
light: DIQMTQSPSSLSASVGDRVTITCRASENQYGYLAWYQQKPGKVPKLLIYNYKNLVEGVPSRFSGSGSGTDFTLTISSLQPEDVATYYCQHHLGTPYTFGQGTKVEIKRTVAAPSVFIFPPSDEQLKSGTASVVCLLNNFYPREAKVQWKVDNALQSGNSQESVTEQDSKDSTYSLSSTLTLSKADYEKHKVYACEVTHQGLSSPVTKSFNRGEC
notes: Module ratio 2:2, Fc null version of huIgG1; copies: 2 + 2
The Kd is the constant that tells how readily two partners part at equilibrium. By koff is commonly meant the first-order rate constant of dissociation. A word on the kon: it is the rate constant with which the complex forms. A word on the EC50 (read off the curve): it is the midpoint of the concentration-response curve. For the molecule B1, the binding result in the experiment with FcγRIIIAF158, with FcγRI, with FcγRIIAR131, with FcγRIIIAV158, with FcγRIIAH131 and with FcγRIIB was “no binding (tested: not shown)” each time. For the same molecule, the binding result with FcγRIIIB is given as “no binding (tested: not shown)”; in experiment [1], “no binding”. In addition, the Kd in experiment [2] was 0.0114 µM; with cyno CD137 ECD-mIgG2a it was 0.0159 µM. For the same molecule, the koff in [2] was determined as 0.000717 s⁻¹; with cyno CD137 ECD-mIgG2a, 0.00266 s⁻¹. The kon in experiment [2] came out at 63000 M⁻¹ s⁻¹; with cyno CD137 ECD-mIgG2a, 167000 M⁻¹ s⁻¹. Besides, the “EC50 (read off the curve)” value in experiment [3] was about 0.07 mg/L; with human CD137 ECD-mIgG2a, about 0.08 mg/L. Moreover, the “NF-kB luciferase reporter in JK-NFKB-CD137 cells co-cultured with CT26-OS8-CEA, EC50” value in [4] is 0.51 µg/mL and 2.91 nM and 0.56 µg/mL and 3.2 nM.
